Consider 1 molecule from publication PMC3756332 (Scientific Reports, 2013).

This assay has as its target T1, rabbit cytochrome P450 2B4 (rabbit, UniProt P00178 1-491).
T1 sequence (looked up): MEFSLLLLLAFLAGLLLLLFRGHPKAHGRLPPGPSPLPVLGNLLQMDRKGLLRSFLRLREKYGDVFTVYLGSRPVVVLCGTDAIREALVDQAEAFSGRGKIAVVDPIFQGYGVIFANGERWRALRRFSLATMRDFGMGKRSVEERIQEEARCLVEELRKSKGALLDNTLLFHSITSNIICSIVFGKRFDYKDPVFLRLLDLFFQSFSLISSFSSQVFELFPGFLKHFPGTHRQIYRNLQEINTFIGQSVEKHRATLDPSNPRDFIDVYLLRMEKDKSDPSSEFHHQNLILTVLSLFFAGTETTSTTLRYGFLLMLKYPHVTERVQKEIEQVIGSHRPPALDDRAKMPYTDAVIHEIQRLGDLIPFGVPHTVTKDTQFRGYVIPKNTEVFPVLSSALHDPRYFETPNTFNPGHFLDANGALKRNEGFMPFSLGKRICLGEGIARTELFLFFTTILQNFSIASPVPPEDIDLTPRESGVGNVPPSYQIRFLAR
The assay can be described thus: type I spectral change.

B1: rabbit cytochrome b5 (natural protein, UniProt P00169 1-134, looked up)
chain: MAAQSDKDVKYYTLEEIKKHNHSKSTWLILHHKVYDLTKFLEEHPGGEEVLREQAGGDATENFEDVGHSTDARELSKTFIIGELHPDDRSKLSKPMETLITTVDSNSSWWTNWVIPAISALIVALMYRLYMADD
modifications: uniformly 15N-labeled (in the NMR experiments)
In the case of B1, the binding result is “binds”.
